Measured values published in the supplement of paper PMC10126150.
± gives the standard deviation of the averaged measurements.

Tested on: ATP
Test: switch fluorescence ratio, 500 uM ATP over buffer (Cy3 cluster intensity, sum of 5 cycles each) (fold (ratio)); higher = stronger signal-on switching upon ATP binding; sequences stand for … in TCGTCGGCAGCGTCAGATGTGTATAAGAGACAGTTTTTTTTTTTTTTTTTTTTTTTTT…TC
Conditions: aptamer strand: ATP DNA aptamer (quencher-CACCTGGGGGAGTATTGCGGAGGAAGG + anchor), 100 nM annealed; ATP concentration: 500 uM
Outline: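 After annealing to 100 nM quencher-labelled ATP aptamer, Cy3-labelled switching-strand clusters on a modified Illumina MiSeq flow-cell were imaged in selection buffer. A second image followed after 15 min with 500 uM ATP at 22 °C, and five such buffer/ATP cycles were done, each separated by NaOH stripping and re-annealing. The fluorescence ratio, averaged per switch-domain sequence, is summed target-cycle over summed buffer-cycle Cy3 intensity per cluster, with clusters outside 100-1000 RFU excluded.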
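Further: ATP exposure 15 min at 22 °C before imaging.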

GAACCTTCGT and GGTTCCGCGG are within error of each other in switch fluorescence ratio: 1.05 ± 0.096 for the first, 1.11 ± 0.025 for the second.

TTGGGTTGTT and GGTTGGGCGG are within error of each other in switch fluorescence ratio: 0.986 ± 0.033 for the first, 1.01 ± 0.026 for the second.

First: TTGTATTTTT
Second: CGTGTATATA
The switch fluorescence ratio of the first is lower: 0.98 ± 0.033 for the first, 1.018 ± 0.0041 for the second.

ATGGCAGACT and ATGGGGGGCA are within error of each other in switch fluorescence ratio: 1.02 ± 0.052 for the first, 0.971 ± 0.025 for the second.

First: TATGATGGGC
Second: GACTGATACC
The switch fluorescence ratio of the first is lower: 0.9577 ± 0.0057 for the first, 1.17 ± 0.035 for the second.

GGTGGGGGTT and TAGTAGAGGT are within error of each other in switch fluorescence ratio: 0.999 ± 0.036 for the first, 1 ± 0.043 for the second.

Going from ACGCAGAACG to ATAGACTTTA, the switch fluorescence ratio falls from 1.36 ± 0.074 to 1.04 ± 0.043.

ATAAGTGTTA and CTGATTCCTG are within error of each other in switch fluorescence ratio: 0.9898 ± 0.0031 for the first, 1.01 ± 0.04 for the second.

Going from TGATTGAGTT to AAAAATGTCC, the switch fluorescence ratio rises from 1 ± 0.016 to 1.07 ± 0.03.

Compared with GCGGTCAAAT, TTTTACCCAG is higher in switch fluorescence ratio: 1.005 ± 0.0018 for the first, 1.11 ± 0.012 for the second.

TCATAGGTTT and AAGACGGGGT are within error of each other in switch fluorescence ratio: 0.974 ± 0.038 for the first, 1.01 ± 0.049 for the second.

TTCTACTGAT and AGGGTTGGCA are within error of each other in switch fluorescence ratio: 1.32 ± 0.39 for the first, 0.998 ± 0.029 for the second.

ATACTTAGGT and TTGAATCGGG are within error of each other in switch fluorescence ratio: 1.07 ± 0.1 for the first, 0.944 ± 0.035 for the second.

AGTTCTAGGG and AATTAGTCTA are within error of each other in switch fluorescence ratio: 0.971 ± 0.031 for the first, 1.01 ± 0.03 for the second.

GGGGGTACGA and GTGGAAATCA are the same in switch fluorescence ratio: 1.01 ± 0.052 for the first, 1.01 ± 0.029 for the second.

First: ACGAATGTGC
Second: TGGTGAGGAG
The switch fluorescence ratio of the first is higher: 1.022 ± 0.0097 for the first, 0.98 ± 0.013 for the second.

CCAGGGGAAG and TAGTGATCTT are within error of each other in switch fluorescence ratio: 0.996 ± 0.017 for the first, 0.997 ± 0.0066 for the second.

Going from TGGTTCTGTG to TTTCAAACCC, the switch fluorescence ratio falls from 1.0262 ± 0.00041 to 0.995 ± 0.013.

Going from TGTTGGACTA to TTACTGAAAA, the switch fluorescence ratio rises from 0.9992 ± 0.0065 to 1.04 ± 0.025.

ATTTGTTTAC and CTCTTGGGAA are within error of each other in switch fluorescence ratio: 1.011 ± 0.0065 for the first, 0.992 ± 0.014 for the second.

TCGGGCCCGG and GGATTGGCGG are within error of each other in switch fluorescence ratio: 1 ± 0.078 for the first, 0.983 ± 0.039 for the second.

GTGTCCATTG and GTAAGAGCGG are the same in switch fluorescence ratio: 0.998 ± 0.074 for the first, 0.9983 ± 0.0065 for the second.

GGTTTTTGGT and TAGAAGGAAA are the same in switch fluorescence ratio: 1 ± 0.032 for the first, 0.9997 ± 0.0017 for the second.

Compared with CGAGGATAGG, GTCACTTATT is higher in switch fluorescence ratio: 0.999 ± 0.035 for the first, 1.036 ± 0.0058 for the second.

First: GTTAGGTTGG
Second: CACTATGGGA
The switch fluorescence ratio of the first is lower: 0.9811 ± 0.007 for the first, 1.02 ± 0.027 for the second.

TTGACGATGT and AACGTGCCTG are within error of each other in switch fluorescence ratio: 1.17 ± 0.19 for the first, 0.979 ± 0.077 for the second.

GTATTCGGTG and TGGTTTCA are within error of each other in switch fluorescence ratio: 0.982 ± 0.045 for the first, 1.02 ± 0.041 for the second.

ACGATGGTTG and GGCCTTCGGG are within error of each other in switch fluorescence ratio: 0.9729 ± 0.0095 for the first, 0.972 ± 0.053 for the second.

First: TATATGCGTG
Second: TAATTTATAC
The switch fluorescence ratio of the first is lower: 0.9932 ± 0.0039 for the first, 1.053 ± 0.0054 for the second.

First: GGGTTAGCTT
Second: AAGTACTAGC
The switch fluorescence ratio of the first is lower: 0.98 ± 0.031 for the first, 1.212 ± 0.0086 for the second.

TCTAGACTCA and TTTTTTTT are within error of each other in switch fluorescence ratio: 1.18 ± 0.29 for the first, 1.04 ± 0.047 for the second.

Compared with TGCAGCATGA, ATCCATACAA is lower in switch fluorescence ratio: 1.333 ± 0.008 for the first, 1.03 ± 0.035 for the second.

TTACAGCCTG and ATGCGGGTGC are within error of each other in switch fluorescence ratio: 1 ± 0.04 for the first, 1.04 ± 0.039 for the second.

Going from ATTAGATGTT to TATGTCATGT, the switch fluorescence ratio rises from 0.9635 ± 0.0029 to 1.02 ± 0.011.

GCGCGTGGAG and TATGAAACCG are within error of each other in switch fluorescence ratio: 1.04 ± 0.03 for the first, 1.02 ± 0.086 for the second.

GGGTTGTCGC and ACCCAAAATT are within error of each other in switch fluorescence ratio: 1.01 ± 0.024 for the first, 1.05 ± 0.033 for the second.

TGTCGAGGGG and CTGTTGGAAG are within error of each other in switch fluorescence ratio: 0.981 ± 0.017 for the first, 0.969 ± 0.012 for the second.

Compared with AAGAGGGTAT, ATGATGCAGA is higher in switch fluorescence ratio: 0.9835 ± 0.0065 for the first, 1.004 ± 0.008 for the second.

First: GCTCGCAGAT
Second: CTGGGGGTGT
The switch fluorescence ratio of the first is higher: 1.21 ± 0.042 for the first, 1.05 ± 0.04 for the second.

GGAATGACGA and GGGTGGACAC are within error of each other in switch fluorescence ratio: 0.989 ± 0.048 for the first, 0.947 ± 0.065 for the second.

First: CCAAGGTGGG
Second: ATGCATGGGC
The switch fluorescence ratio of the first is higher: 1.1 ± 0.016 for the first, 1.03 ± 0.022 for the second.

Compared with AGCTTAAGGG, TCTTTGTTAC is higher in switch fluorescence ratio: 0.967 ± 0.02 for the first, 1.05 ± 0.022 for the second.

First: TTCAGAGGCG
Second: CATGTATTAT
The switch fluorescence ratio of the first is higher: 1.04 ± 0.011 for the first, 0.985 ± 0.034 for the second.

GGGCGGACGT and GTTGATGCCG are within error of each other in switch fluorescence ratio: 0.969 ± 0.041 for the first, 1.001 ± 0.0012 for the second.

GCGTTCGGGA and GTTTGGGGTC are the same in switch fluorescence ratio: 0.984 ± 0.021 for the first, 0.984 ± 0.018 for the second.

ACTTGATTTT and GAAACAGGGA are within error of each other in switch fluorescence ratio: 1.02 ± 0.015 for the first, 1.06 ± 0.057 for the second.

CTGGTGTCAC and CGTGTAGTTT are the same in switch fluorescence ratio: 1.01 ± 0.029 for the first, 1.01 ± 0.036 for the second.

CGTATTGAGA and TCCAGTCAAA are within error of each other in switch fluorescence ratio: 0.968 ± 0.057 for the first, 1.01 ± 0.075 for the second.

GAATGCATTT and CAAAGAGTAG are within error of each other in switch fluorescence ratio: 1.02 ± 0.038 for the first, 1.002 ± 0.005 for the second.

CGGGAGGTGC and AGCTTCAGGG are within error of each other in switch fluorescence ratio: 1.02 ± 0.033 for the first, 1.01 ± 0.037 for the second.

CGAGGGGTTT and CCGTATAAGG are within error of each other in switch fluorescence ratio: 0.984 ± 0.059 for the first, 1.023 ± 0.0038 for the second.

AGGTCATGTA and GCTATCGGTT are the same in switch fluorescence ratio: 1.01 ± 0.026 for the first, 1.01 ± 0.024 for the second.

AGAGGATTTT and CTTTCATTTT are within error of each other in switch fluorescence ratio: 1 ± 0.015 for the first, 0.972 ± 0.036 for the second.

First: AGCCAGGTGG
Second: CTGGTTGGGG
The switch fluorescence ratio of the first is higher: 1.27 ± 0.14 for the first, 1 ± 0.017 for the second.

GGGTTAAGAT and TCGGTATGTG are within error of each other in switch fluorescence ratio: 0.997 ± 0.0054 for the first, 1.03 ± 0.045 for the second.

CAAGGTTATG and GCATTATTAA are within error of each other in switch fluorescence ratio: 0.974 ± 0.013 for the first, 1.01 ± 0.032 for the second.

TAAGTGACAG and ATGTGAAAGA are within error of each other in switch fluorescence ratio: 1.01 ± 0.063 for the first, 0.982 ± 0.011 for the second.

Compared with TGTGTTGCCT, ACTATGGCTG is lower in switch fluorescence ratio: 1.05 ± 0.015 for the first, 0.957 ± 0.045 for the second.

GGAGAGCGGT and AAGGTTTGTT are within error of each other in switch fluorescence ratio: 1.02 ± 0.011 for the first, 0.996 ± 0.049 for the second.

CGGCAGGGGA and GGGATTAGTC are the same in switch fluorescence ratio: 1.05 ± 0.051 for the first, 1.05 ± 0.088 for the second.

TTTTTAGTTA and AGGCGTAGCT are within error of each other in switch fluorescence ratio: 0.981 ± 0.01 for the first, 1.01 ± 0.044 for the second.

GGTGCGTACG and TTAAGCTAAT are within error of each other in switch fluorescence ratio: 1.01 ± 0.058 for the first, 1.42 ± 0.5 for the second.

Compared with GAGACATTAC, GGCTCAGGGC is lower in switch fluorescence ratio: 1.61 ± 0.04 for the first, 0.9793 ± 0.0024 for the second.

Compared with TCGCTTTTTG, GGCCGGGGTG is higher in switch fluorescence ratio: 1.01 ± 0.027 for the first, 1.18 ± 0.032 for the second.

First: TTGTGCCGGG
Second: AACATCGTTT
The switch fluorescence ratio of the first is lower: 0.9391 ± 0.0045 for the first, 1.02 ± 0.019 for the second.

TATAGAGTAA and ATTCGAGGTT are within error of each other in switch fluorescence ratio: 1.02 ± 0.034 for the first, 0.987 ± 0.071 for the second.

ATTGGATCGG and AAGGGCGCTG are within error of each other in switch fluorescence ratio: 0.9956 ± 0.0095 for the first, 1.01 ± 0.048 for the second.

First: TTACCATCCT
Second: TTATTTCTTG
The switch fluorescence ratio of the first is higher: 1.19 ± 0.029 for the first, 0.994 ± 0.046 for the second.

GACCTGGGGC and TTTAAAACCA are within error of each other in switch fluorescence ratio: 0.973 ± 0.068 for the first, 1.004 ± 0.0039 for the second.

TTAATAAATG and TTAGGGCCTA are within error of each other in switch fluorescence ratio: 1 ± 0.015 for the first, 0.9844 ± 0.0097 for the second.

First: GCGGAGGGTG
Second: ACGGAGCGGG
The switch fluorescence ratio of the first is lower: 1.028 ± 0.0092 for the first, 1.35 ± 0.25 for the second.

Going from AGCACGTTTT to GCTTACTCTG, the switch fluorescence ratio rises from 1.01 ± 0.025 to 1.62 ± 0.085.

Compared with GGGTGGGGGT, CCGAGATTGC is higher in switch fluorescence ratio: 1.03 ± 0.018 for the first, 1.95 ± 0.14 for the second.

TAAGTAGGGT and GAAGGGGAAG are within error of each other in switch fluorescence ratio: 1.01 ± 0.023 for the first, 0.998 ± 0.0043 for the second.

Going from CATTTTTTTA to ATTGAAGGGA, the switch fluorescence ratio rises from 0.96084 ± 0.00082 to 1.018 ± 0.0059.

Going from GGGTCAGGCT to TTGGAGCATG, the switch fluorescence ratio rises from 0.981 ± 0.027 to 1.28 ± 0.049.

AGTGGTAAAG was tested, and the switch fluorescence ratio was 1.012 ± 0.0029.
